2 molecules from patent US20130130315A1 (ADVANCECOR, published 2013) can be followed below.

Assay [1] addresses T1, CD133 protein (UniProt O43490 20-865, limits assumed).
T1 construct: whole, on cells; Presented on AC133/293 cells: paraformaldehyde-fixed in the cellular ELISA, unfixed in the phage FACS; also called CD133 antigen; AC133
T1 sequence (looked up): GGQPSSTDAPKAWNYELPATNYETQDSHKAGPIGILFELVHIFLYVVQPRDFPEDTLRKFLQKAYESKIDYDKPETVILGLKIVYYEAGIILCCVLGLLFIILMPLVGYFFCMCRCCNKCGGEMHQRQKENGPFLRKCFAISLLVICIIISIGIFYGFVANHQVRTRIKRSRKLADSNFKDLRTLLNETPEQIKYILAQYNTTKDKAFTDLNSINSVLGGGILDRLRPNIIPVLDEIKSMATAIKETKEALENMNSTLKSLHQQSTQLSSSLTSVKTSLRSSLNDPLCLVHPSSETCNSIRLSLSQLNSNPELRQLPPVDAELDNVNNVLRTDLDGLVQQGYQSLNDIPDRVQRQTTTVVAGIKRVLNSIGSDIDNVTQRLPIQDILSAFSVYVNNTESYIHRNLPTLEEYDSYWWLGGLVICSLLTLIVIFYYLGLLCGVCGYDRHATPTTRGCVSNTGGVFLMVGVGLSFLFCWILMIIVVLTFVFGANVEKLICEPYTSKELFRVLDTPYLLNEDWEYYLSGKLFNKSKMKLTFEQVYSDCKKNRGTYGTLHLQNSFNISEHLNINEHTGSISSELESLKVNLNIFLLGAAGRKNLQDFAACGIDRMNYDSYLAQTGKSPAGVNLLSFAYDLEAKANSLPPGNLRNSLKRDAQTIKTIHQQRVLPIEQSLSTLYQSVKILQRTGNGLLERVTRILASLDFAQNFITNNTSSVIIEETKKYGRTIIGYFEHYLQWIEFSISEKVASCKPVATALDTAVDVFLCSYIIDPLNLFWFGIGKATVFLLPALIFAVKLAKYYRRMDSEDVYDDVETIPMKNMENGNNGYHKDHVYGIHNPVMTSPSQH
The assay can be described thus: competitive cellular ELISA on fixed AC133/293 cells; competitor of 2 nM W6B3H10 mAb. As for the experimental part: (§1) 1×10⁵ cells in 0.2 ml of medium were added to each well and incubated o/n at 37° C., 5% CO₂ to allow cells to attach to the surface of the plate. The next day wells were washed once with 0.2 ml PBS and fixed with 0.1 ml 2% Paraformaldehyde (in PBS, pH 7.4) for 10-20 min at RT. Wells were washed with PBS-T (PBS+0.1% Tween-20) and blocked with either 1× RotiBlock or 3% milk in PBS-T for 1 hour at RT. After washing with PBS-T, serial dilutions of the respective antibody were added to the wells and incubated at RT for at least one hour while shaking. After washing with PBS-T, 0.1 ml of StrepMAb-Classic-HRP (1:10000 in PBS-T, lba BioTagnology, Göttingen, Germany) or of horseradish peroxidase linked anti-mouse IgG (1:10000 in PBS-T, Dianova, Hamburg, Germany) was added and incubated at RT for one hour with shaking. After washing with PBS-T, 0.1 ml of 1-Step Ultra TMB-ELISA substrate (Thermo Scientific, Braunschweig, Germany) was added and incubated until an adequate blue staining developed. To stop the reaction 0.1 ml 1 M H₂SO₄ was added to each well and absorbance at 450 nm and 595 nm as a reference was measured with an infinite F200 plate reader (TECAN, Männedorf, Switzerland). […] Signals were detected using an anti-mouse IgG-HRP antibody (1:10000 in PBS-T, Dianova, Hamburg, Germany). […]

In assay [2] the target is T1, CD133 protein. The assay can be described thus: cellular ELISA, threefold dilution series on fixed AC133/293 cells. As for the experimental part:
as §1

B1: single chain antibody scFv-lh (scFv, not shown: a dimerising Fc or GST)
scFv: DILMTQSPKSMSMSLGERVTLSCKASENVDTYVSWYQQKPEQSPKVLIYGASNRYTGVPDRFTGSGSATDFSLTISNVQAEDLADYHCGQSYRYPLTFGAGTKLELKGGGGSGGGGSGGGGSEVQLQQSGPDLMKPGASVKISCKASGYSFTNYYVHWVKQSLDKSLEWIGYVDPFNGDFNYNQKFKDKATLTVDKSSSTAYMHLSSLTSEDSAVYYCARGGLDWYDTSYWYFDVWGAGTAVTVSS
notes: Orientation light-heavy; Made in CHO cells and in E. coli (pET22b); also called mouse single chain antibody; parental mouse single chain antibody
As for B1, in the assay with CD133 protein [1], the IC50 came to 3.1 nM.

B2: single chain antibody scFv-hl (scFv, not shown: large carriers)
scFv: EVQLQQSGPDLMKPGASVKISCKASGYSFTNYYVHWVKQSLDKSLEWIGYVDPFNGDFNYNQKFKDKATLTVDKSSSTAYMHLSSLTSEDSAVYYCARGGLDWYDTSYWYFDVWGAGTAVTVSSGGGGSGGGGSGGGGSDILMTQSPKSMSMSLGERVTLSCKASENVDTYVSWYQQKPEQSPKVLIYGASNRYTGVPDRFTGSGSATDFSLTISNVQAEDLADYHCGQSYRYPLTFGAGTKLELK
notes: Orientation heavy-light; Produced and purified solely from E. coli
Turning to B2, the binding result with CD133 protein [2] is recorded as “no binding”.
